Results on one molecule are retold here after US20220291238A1, “Methods for Predicting Treatment Response in Ulcerative Colitis” (Janssen Biotech, Inc., priority 2021, published 2022).

The subject of experiment [1] is mouse colonic organoids. Nature of the experiment: IL22 treatment of mouse colonic organoids, chemokine expression. The class given is cell-based. As to the method:
Mouse colonoids were cultured in the same medium as above but without gastrin SB202190, Nicotinamide, A83-01 and with the addition of 3 μM CHIR99021 (Cambridge Biosciences; Cambridge, United Kingdom). To differentiate them, Wnt3a was withdrawn for 3 days. During the last 24 hours in differentiation medium, mouse colonoids were treated with mouse recombinant IL22 (10 ng/mL) and IL17A (50 ng/mL).
Next, whether IL22 mediated regulation of neutrophil-active chemokine expression was functionally important in colitis was investigated. First, it was evaluated whether IL22 mediated regulation of human colonic epithelial function was conserved across species. […] In the CC family of chemokines, induction of Ccl7 and weaker induction of Ccl2 by IL22, with little or no impact on other CC family members, was observed. These findings were validated using real time PCR, which confirmed time and dose dependent induction of CXC-family chemokine transcripts. As observed in human colonoids, IL22 induced expression of Cxcl1 and Cxcl5, and was synergistically augmented by IL17A. These observations were confirmed at the protein level by measuring chemokine production in supernatants of murine colonic organoids cultured with recombinant mouse cytokines.

For experiment [2], the system named is human colonoids. Nature of the experiment: Cytokine treatment of human colonoids, RNA-seq. The class given is cell-based. How it is done: All patients provided informed consent (NRES/IRAS id:15/LO/1998). Subsequent establishment of human colonoids was performed as previously described by Sato et al (48). The crypts were cultured in growth medium containing advanced Dulbecco's modified Eagle's medium/F12, penicillin/streptomycin (100 units/mL), 10 mM HEPES, 2 mM Glutamax, supplements N2 (1×) and B27 (1×), 50 ng/mL mouse epidermal growth factor (all from Life Technologies; Carlsbad, Calif.), 1 mM N-acetylcysteine (Sigma-Aldrich; St. Louis, Mo.), 50% v/v Wnt3a conditioned medium, 10% v/v R-spondin-1 conditioned medium, 100 ng/mL murine recombinant noggin protein (Peprotech; Rocky Hill, N.J.), 10 nM gastrin (Sigma-Aldrich), 500 nM A83-01 (Bio-techne; Minneapolis, Minn.), 10 μM SB202190 (Sigma-Aldrich) and 10 mM Nicotinamide (Sigma-Aldrich). 10 μM Y-27632 (Sigma-Aldrich) was added to the culture medium for the initial 3 days. Medium was changed every 2 days. […] During the last 24 hours in differentiation medium, human colonoids were treated with human recombinant IL22 (10 ng/mL), IL17A (50 ng/mL), TNFα (10 ng/mL), IFNγ (20 ng/mL), IL13 (10 ng/mL) and IL22 (10 ng/mL)/IL17A (50 ng/mL) combination.
RNA extraction: Colonoids and LPMC were treated in a similar fashion. Cells were lysed and RNA was extracted using the RNAeasy kit (Qiagen; Hilden, Germany). This step was optimized balancing the effectiveness of elimination of DNA quantified (Qubit dsDNA HS assay kit) versus the loss of quantity of RNA (Qubit RNA BR assay kit). Optimal DNAse I concentration was determined to be ×5 the standard concentration. 500 ng of cDNA was then created using Revertaid cDNA synthesis kit (ThermoFisher) and diluted to a concentration of 6.25 ng/μl. Harvested colonoids were put in Qiazol and then RNA was extracted with the RNAeasy kit (Qiagen) as per manufacturer's guidelines. cDNA was created using the Revertaid cDNA synthesis kit (ThermoFisher).
Library preparation and sequencing: A total amount of 3 μg RNA per sample was used as input material for the RNA sample preparations. Sequencing libraries were generated using NEBNextR Ultra™ RNA Library Prep Kit for IlluminaR (NEB, Ipswich, Mass.) following manufacturer's recommendations and index codes were added to attribute sequences to each sample. Briefly, mRNA was purified from total RNA using poly-T oligo-attached magnetic beads. Fragmentation was carried out using divalent cations under elevated temperature in NEBNext First Strand Synthesis Reaction Buffer (5×). First strand cDNA was synthesized using random hexamer primer and M-MuLV Reverse Transcriptase (RNase H-). Second strand cDNA synthesis was subsequently performed using DNA Polymerase I and RNase H. Remaining overhangs were converted into blunt ends via exonuclease/polymerase activities. After adenylation of 3′ ends of DNA fragments, NEBNext Adaptor with hairpin loop structure were ligated to prepare for hybridization. In order to select cDNA fragments of preferentially 150˜200 bp in length, the library fragments were purified with AMPure XP system (Beckman Coulter, Brea, Calif.). Then 3 μl USER Enzyme (NEB) was used with size-selected, adaptor-ligated cDNA at 37° C. for 15 minutes followed by 5 minutes at 95° C. before PCR. Then PCR was performed with Phusion High-Fidelity DNA polymerase, Universal PCR primers and Index (X) Primer. At last, PCR products were purified (AMPure XP system) and library quality was assessed on the Agilent Bioanalyzer 2100 system. The clustering of the index-coded samples was performed on a cBot Cluster Generation System using HiSeq PE Cluster Kit cBot-HS (Illumina; San Diego, Calif.) according to the manufacturer's instructions. After cluster generation, the paired-end libraries were sequenced on an Illumina HiSeq platform. […]

B1: IL22: human recombinant IL22 (10 ng/mL) on human colonoids; mouse recombinant IL22 on mouse colonoids (protein, UniProt Q9GZX6 34-179, looked up)
Interleukin-22: APISSHCRLDKSNFQQPYITNRTFMLAKEASLADNNTDVRLIGEKLFHGVSMSERCYLMKQVLNFTLEEVLFPQSDRFQPYMQEVVPFLARLSNRLSTCHIEGDDLHIQRNVQKLKDTVKKLGESGEIKAIGELDLLFMSLRNACI
As for B1, in experiment [1], the “regulation of chemokine expression” value is “selectively induced expression of the neutrophil-active chemokines Cxcl1, Cxcl3 and Cxcl5”. In experiment [2] (FDR<0.01), the downregulated transcripts turned out to be 672 and the upregulated transcripts is recorded as 579. The differentially expressed transcripts in experiment [2] (IL22 10 ng/mL, 24 hours, FDR<0.01) is given as 1251 transcripts. In addition, the “regulation of chemokine expression” value in experiment [2] (human colonoids, 24 hours) is “preferentially upregulated the neutrophil-active CXC family chemokines CXCL1, CXCL2, CXCL3, CXCL4, CXCL5, CXCL6 and CXCL8”. Also, the “transcripts uniquely regulated by IL22” value in experiment [2] (of the 1251 IL22-regulated transcripts) was 322.
